Assays:
[1] = target: HLA-DR(α1*0101,α3*0101) (human); test: competition assay on purified HLA; tracer LOL (191-210)
[2] = target: HLA-DR(α1*0101,α1*1301) (human); test: competition assay on purified HLA; tracer B1 (21-36)
[3] = target: HLA-DP(α1*0101,α1*0401) (human); test: competition assay on purified HLA; tracer bOxy 271-287
[4] = target: HLA-DR(α1*0101,α4*0101) (human); test: competition assay on purified HLA; tracer E2/E168
[5] = target: HLA-DR(α1*0101,α1*1501) (human); test: competition assay on purified HLA; tracer A3 (152-166)
[6] = target: DRB5=HLA-DR(α1*0101,α5*0101) (human); test: HLA class II competition binding assay, biotinylated tracer peptide
[7] = target: DP401=HLA-DP(α1*0101,α1*0401) (human); test: as above
[8] = target: DRB3=HLA-DR(α1*0101,α3*0101) (human); test: as above
[9] = target: DR3=HLA-DR(α1*0101,α1*0301) (human); test: as above
[10] = target: DR11=HLA-DR(α1*0101,α1*1101) (human); test: as above
[11] = target: DRB4=HLA-DR(α1*0101,α4*0101) (human); test: as above
[12] = target: DR7=HLA-DR(α1*0101,α1*0701) (human); test: as above
[13] = target: DR15=HLA-DR(α1*0101,α1*1501) (human); test: as above
[14] = target: DR13=HLA-DR(α1*0101,α1*1301) (human); test: as above
[15] = target: DR1=HLA-DR(α1*0101,α1*0101) (human); test: as above
[16] = target: HLA-DR(α1*0101,α1*0301) (human); test: competition assay on purified HLA; tracer MT (2-16)
[17] = target: HLA-DR(α1*0101,α5*0101) (human); test: competition assay on purified HLA; tracer HA (307-319)
[18] = target: HLA-DR(α1*0101,α1*0101) (human); test: as above
[19] = target: HLA-DR(α1*0101,α1*1101) (human); test: as above
[20] = target: HLA-DR(α1*0101,α1*0701) (human); test: competition assay on purified HLA; tracer YKL
[21] = target: DR4=HLA-DR(α1*0101,α1*0401) (human); test: HLA class II competition binding assay, biotinylated tracer peptide
[22] = target: HLA-DR(α1*0101,α1*0401) (human); test: competition assay on purified HLA; tracer HA (307-319)
[23] = target: DP (α1*0101, α1*0402) (human); test: competition assay on purified HLA; tracer bOxy 271-287
[24] = target: DP402=HLA-DR(α1*0101,α1*0402) (human); test: HLA class II competition binding assay, biotinylated tracer peptide

For HSV1 1 (gB809-840) (peptide), the IC50 [1] was > 100000 nM, the IC50 [2] was 284 nM and the IC50 [3] was 1610 nM. It also gave an IC50 [4] of 43 nM, an IC50 [5] of 3 nM and an IC50 [6] of 6 nM. For the same substance, the IC50 [7] was 1610 nM, the IC50 [8] was > 100000 nM and the IC50 [9] was 995 nM. For the same substance, the IC50 [10] was 13 nM, the IC50 [11] was 43 nM and the IC50 [12] was 296 nM. For the same substance, the IC50 [13] was 3 nM, the IC50 [14] was 284 nM and the IC50 [15] was 6 nM. It also gave an IC50 [16] of 995 nM, an IC50 [17] of 6 nM and an IC50 [18] of 6 nM. It also gave an IC50 [19] of 13 nM and an IC50 [20] of 296 nM.
For HSV1 2 (gB401-433) (peptide), the IC50 [1] was > 100000 nM, the IC50 [2] was > 100000 nM and the IC50 [5] was 60 nM. The IC50 [8] was > 100000 nM, the IC50 [9] was > 100000 nM and the IC50 [12] was 1 nM. The IC50 [13] was 60 nM, the IC50 [14] was > 100000 nM and the IC50 [15] was < 1 nM. The IC50 [16] was > 100000 nM, the IC50 [18] was < 1 nM and the IC50 [20] was 1 nM.
In the case of HSV1 7 (gB631-661) (peptide), the IC50 [2] is reported as > 100000 nM, the IC50 [5] is reported as 60 nM and the IC50 [9] is reported as > 100000 nM. The IC50 [13] was 60 nM, the IC50 [14] was > 100000 nM and the IC50 [16] was > 100000 nM.
HSV1 14 (gB607-634) (peptide) was tested, and the IC50 [1] was > 100000 nM and the IC50 [16] was > 100000 nM.
HSV1 38 (gD176-206) (peptide) gave an IC50 [1] of 25000 nM, an IC50 [2] of 200 nM and an IC50 [3] of 91 nM. It also gave an IC50 [4] of 1800 nM, an IC50 [6] of 91 nM and an IC50 [7] of 91 nM. It also gave an IC50 [8] of 25000 nM, an IC50 [9] of 1340 nM and an IC50 [10] of 5 nM. It also gave an IC50 [11] of 1800 nM, an IC50 [12] of 21 nM and an IC50 [21] of 955 nM. The IC50 [14] was 200 nM, the IC50 [15] was 54 nM and the IC50 [16] was 1340 nM. It also gave an IC50 [17] of 91 nM, an IC50 [18] of 54 nM and an IC50 [22] of 955 nM. For the same substance, the IC50 [19] was 5 nM and the IC50 [20] was 21 nM.
HSV1 13 (gB590-612) (peptide) was tested, and the IC50 [3] was > 100000 nM, the IC50 [23] was > 100000 nM and the IC50 [7] was > 100000 nM. For the same substance, the IC50 [24] was > 100000 nM.
In the case of HSV1 34 (gD146-179) (peptide), the IC50 [1] is reported as 2020 nM, the IC50 [2] is reported as > 100000 nM and the IC50 [3] is reported as 115 nM. For the same substance, the IC50 [4] was 743 nM, the IC50 [5] was 35 nM and the IC50 [6] was 85 nM. The IC50 [7] was 115 nM, the IC50 [8] was 2020 nM and the IC50 [9] was 10200 nM. The IC50 [10] was 175 nM, the IC50 [11] was 743 nM and the IC50 [12] was 316 nM. The IC50 [21] was 632 nM, the IC50 [13] was 35 nM and the IC50 [14] was > 100000 nM. The IC50 [15] was 40 nM, the IC50 [16] was 10200 nM and the IC50 [17] was 85 nM. It also gave an IC50 [18] of 40 nM, an IC50 [22] of 632 nM and an IC50 [19] of 175 nM. The IC50 [20] was 316 nM.
For HSV1 4 (gB424-445) (peptide), the IC50 [1] was > 100000 nM, the IC50 [8] was > 100000 nM and the IC50 [9] was > 100000 nM. The IC50 [15] was 30 nM, the IC50 [16] was > 100000 nM and the IC50 [18] was 30 nM.
HSV1 9 (gB837-870) (peptide) showed an IC50 [1] of 58000 nM, an IC50 [2] of 362 nM and an IC50 [3] of 8000 nM. The IC50 [23] was 4000 nM, the IC50 [4] was 16000 nM and the IC50 [5] was 2430 nM. For the same substance, the IC50 [6] was 559 nM, the IC50 [7] was 8000 nM and the IC50 [8] was 58000 nM. It also gave an IC50 [9] of 11400 nM, an IC50 [24] of 4000 nM and an IC50 [11] of 16000 nM. The IC50 [12] was 229 nM, the IC50 [21] was 4000 nM and the IC50 [13] was 2430 nM. It also gave an IC50 [14] of 362 nM, an IC50 [15] of 493 nM and an IC50 [16] of 11400 nM. For the same substance, the IC50 [17] was 559 nM, the IC50 [18] was 493 nM and the IC50 [22] was 4000 nM. For the same substance, the IC50 [20] was 229 nM.
In the case of HSV1 32 (gD77-104) (peptide), the IC50 [1] is reported as > 100000 nM, the IC50 [3] is reported as 1450 nM and the IC50 [23] is reported as 381 nM. The IC50 [6] was 1 nM, the IC50 [7] was 1450 nM and the IC50 [8] was > 100000 nM. The IC50 [9] was 2350 nM, the IC50 [10] was 300 nM and the IC50 [24] was 381 nM. It also gave an IC50 [12] of 4 nM, an IC50 [16] of 2350 nM and an IC50 [17] of 1 nM. The IC50 [19] was 300 nM and the IC50 [20] was 4 nM.
With HSV1 10 (gB80-106) (peptide) the IC50 [1] was > 100000 nM and the IC50 [8] was > 100000 nM.

From patent US20080299140A1, “Immunogenic Composition and Peptide Sequences for Prevention and Treatment of an Hsv Condition” (priority 2002, published 2008)
